Consider one molecule from patent US20230372551A1, “RADIOLABELED LIGANDS FOR TARGETED PET/SPECT IMAGING AND METHODS OF THEIR USE” (priority 2020, published 2023).

Non-standard residues stand in square brackets, D forms with d. Residues, ends and D or L forms follow the SMILES beside them. *: point of attachment. X1 = CC(=O)N(O)CCCCCNC(=O)CCC(=O)N(O)CCCCCNC(=O)CCC(=O)N(O)CCCCCNC(=O)CCN1C(=O)CC(*)C1=O

The nature of data set [1]: in vivo. Conditions: BALB/c, mouse, total radioactivity. Also on record: species or system BALB/c mice. On the procedure:
(§1) In vivo animal PET imaging and biodistribution. All injections were less than 200 μL with <10% EtOH in sterile PBS. PET images were obtained with the mice under anesthesia in an Inveon PET-CT at 4-144 h p.i. All images were analyzed using 3D Slicer (www.slicer.org). Dissections for ex vivo biodistribution were performed on mice after C02 asphyxiation or cervical dislocation while anesthetized at reported time points. Weight of the syringe prior to injection and after injection was used to determine the mass of injectate. Activity of the syringe prior to injection and after injection was used to determine the percent of injectate administered. The mass injected was corrected by the percent of radioactivity injected. Four to five aliquots (10 μL) were weighed and counted as internal standards for each study. All of the collected organs were counted using an automatic gamma counter (Wizard 3″, PerkinElmer, Waltham, MA). The total injected dose was found as the mass injected dose×fraction radioactivity injected×internal standard average counts/g. The percent injected dose (% ID) was determined as the counts for the tissue×100/total injected dose. The % ID/g was calculated as the % ID/tissue weight. The average and standard deviation of the % ID and % ID/g was determined using normal methods (n-1) for each set of mice.
(§2) 4T1 orthotopic BALB c mouse model. Animal studies were conducted according to MSKCC IACUC-approved animal protocol.
(§3) The 4T1 cells derived from spontaneous breast tumor in a BALB/c mouse (Karmanos Cancer Institute, Detroit, MI) were cultured in Dulbecco's modified Eagle's high glucose media with 10% FCS, 2 mM L-glutamine, penicillin, and streptomycin. The 4T1 cells derived from ATCC (Manassas, VA) were cultured in RPMI-1640 medium modified to contain 2 mM L-glutamine, 10 mM HEPES, 1 mM sodium pyruvate, 4.5 g/L glucose, 1.5 g/L NaHCO3, penicillin, and streptomycin.
(§4) The 4T1 cells described above were removed from the flasks containing the culture, concentrated, and resuspended in minimal media for cell counting. […]

In data set [2] the test system is 4T1 tumors. In words: in vivo. Also on record: species or system BALB/c mice. Conditions: mouse. As for the experimental part:
as §1, §2, §3, §4

Data set [3] can be described thus: in vivo. Conditions: male, athymic nude, mouse, 200 uCi (1.2 nmol), total radioactivity, ex vivo distribution.
Protocol: All injections were less than 200 μL with <10% EtOH in sterile PBS. […] All images were analyzed using 3D Slicer (www.slicer.org). Dissections for ex vivo biodistribution were performed on mice after C02 asphyxiation or cervical dislocation while anesthetized at reported time points. Weight of the syringe prior to injection and after injection was used to determine the mass of injectate. Activity of the syringe prior to injection and after injection was used to determine the percent of injectate administered. The mass injected was corrected by the percent of radioactivity injected. Four to five aliquots (10 μL) were weighed and counted as internal standards for each study. All of the collected organs were counted using an automatic gamma counter (Wizard 3″, PerkinElmer, Waltham, MA). […] The percent injected dose (% ID) was determined as the counts for the tissue×100/total injected dose. The % ID/g was calculated as the % ID/tissue weight. The average and standard deviation of the % ID and % ID/g was determined using normal methods (n-1) for each set of mice.
Tissue samples were collected for additional ex vivo biodistribution studies to confirm the PET data results.

Take `CC(=O)N(O)CCCCCNC(=O)CCC(=O)N(O)CCCCCNC(=O)CCC(=O)N(O)CCCCCNC(=O)CCN1C(=O)CC(SC[C@@H](NC(=O)[C@@H](C)N)C(=O)N[C@H](CC(=O)O)C(=O)N[C@H](CC(=O)O)C(=O)N[C@H](CCC(N)=O)C(=O)N[C@H](CC(N)=O)C(=O)N2CCC[C@@H]2C(=O)N[C@H](Cc2c[nH]c3ccccc23)C(=O)N[C@H](CCCNC(=N)N)C(=O)N[C@H](C)C(=O)N[C@H](Cc2ccc(O)cc2)C(=O)N[C@H](CC(C)C)C(=O)N[C@H](CC(=O)O)C(=O)N[C@H](CC(C)C)C(=O)N[C@H](CC(C)C)C(=O)N[C@H](Cc2ccccc2)C(=O)N2CCC[C@@H]2C(=O)N[C@@H](C(=O)N[C@H](CC(=O)O)C(=O)N[C@@H](C(=O)N[C@H](CC(C)C)C(=O)N[C@H](CC(C)C)C(=O)N[C@H](CC(C)C)C(=O)N[C@H](CC(=O)O)C(=O)N[C@H](CC(C)C)C(=O)N[C@H](CC(C)C)C(=O)N[C@H](Cc2c[nH]c3ccccc23)C(=O)O)[C@H](C)O)[C@H](C)O)C1=O` (stereo partly drawn) [[^89Zr]Zr-DFO-cys-Var3pHLIP, metal not drawn] (H-[dA][dC](X1)[dD][dD][dQ][dN][dP][dW][dR][dA][dY][dL][dD][dL][dL][dF][dP][dT][dD][dT][dL][dL][dL][dD][dL][dL][dW]-OH; N-terminus and C-terminus assumed): the tissue uptake in data set [1] is roughly 15 %ID/g. Moreover, the “time until which tumor uptake continues to increase” value in data set [2] is reported as “approximately 48 h”. Besides, in data set [2] (5 ug), the circulatory half-life result is recorded as “long circulatory half-life”. Besides, the values for the tissue uptake at 48 h in data set [3] (Femur) and in data set [3] (Muscle) were 1.4 ± 0.1 %ID/g and 0.6 ± 0.7 %ID/g, respectively.
